The text below walks through data of paper PMC4502909.

The assay addresses Pig heart citrate synthase (pig) (UniProt P00889).
Sequence of UniProt P00889 (P00889 28-464): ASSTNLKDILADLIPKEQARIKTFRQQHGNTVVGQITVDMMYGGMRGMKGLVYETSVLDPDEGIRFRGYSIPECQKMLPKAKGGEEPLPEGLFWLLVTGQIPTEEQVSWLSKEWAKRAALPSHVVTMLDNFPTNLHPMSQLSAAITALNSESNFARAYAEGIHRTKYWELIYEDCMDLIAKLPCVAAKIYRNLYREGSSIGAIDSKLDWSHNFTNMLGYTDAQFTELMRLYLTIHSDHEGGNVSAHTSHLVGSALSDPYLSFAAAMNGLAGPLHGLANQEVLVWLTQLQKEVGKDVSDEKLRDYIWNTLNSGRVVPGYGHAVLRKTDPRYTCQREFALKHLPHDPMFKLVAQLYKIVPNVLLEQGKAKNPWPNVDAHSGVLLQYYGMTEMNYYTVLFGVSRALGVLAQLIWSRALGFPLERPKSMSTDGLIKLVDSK

The substance “rHtrA1 (HtrA1-ΔTM-Ser255Ala-His6), secreted soluble C-terminal region of Staphylococcus aureus strain COL HtrA1 (domain or fragment)” yielded a reduction of the thermal aggregation of citrate synthase (0.8 µM, 44°C, absorbance/light scattering at 650 nm) by 5 µM rHtrA1 of 30%.
Substance “rHtrA2 (HtrA2-ΔTM-Ser619Ala-His6), secreted soluble C-terminal region of Staphylococcus aureus strain COL HtrA2 (domain or fragment)” gave a reduction of the thermal aggregation of citrate synthase (0.8 µM, 44°C, absorbance/light scattering at 650 nm) by 5 µM rHtrA2 of 30%.
